Patent US20250304658A1 (ICAHN SCHOOL OF MEDICINE AT MOUNT SINAI, published 2025)
Read-outs that look alike come from different tables or passages of the source.

T1: BK virus VP1 protein, genotype I (BK virus, UniProt P03088 1-362)
T1 sequence: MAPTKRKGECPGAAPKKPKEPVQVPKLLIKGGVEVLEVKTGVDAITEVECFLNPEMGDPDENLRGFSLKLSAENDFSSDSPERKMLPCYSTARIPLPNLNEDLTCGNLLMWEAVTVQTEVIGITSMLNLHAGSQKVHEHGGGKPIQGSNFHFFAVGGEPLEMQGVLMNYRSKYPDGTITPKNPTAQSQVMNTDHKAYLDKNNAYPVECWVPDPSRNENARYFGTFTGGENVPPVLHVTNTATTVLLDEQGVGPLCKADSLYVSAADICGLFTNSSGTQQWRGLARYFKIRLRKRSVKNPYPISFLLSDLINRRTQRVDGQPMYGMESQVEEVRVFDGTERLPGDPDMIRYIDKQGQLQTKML

B1: 9H9 (antibody, V domains shown)
VH: EVQLVESGGGLVQPGGSLRLSCAASGFTFSSYEMNWVRQAPGKGLEWVSYISSGGSSIKYADSVRGRFTFSRDNAENSVHLQMNSLRGEDTAVYYCARVGGSYYYSYAMDVWGQGTAVTVSS
VL: DIQLTQSPSFLSASVGDRVTITCWASQDISSYLAWYQQKPGKAPKLLIYAASTLQSGVPSRFSGSGSGTEFTLTISSLQPEDFATYYCQQPNNYPFSFGPGTKVDVK
B2: 4E6 (antibody, V domains shown)
VH: EVQLVESGGDLVQPGRSLRLSCAASGFTFDDYAMHWVRQGPGKGLEWVSGISWSGVTMGYADSVKGRFTISRDNAKNSLYLRMNSLRADDTAFYYCARGDGTNAFDIWGHGTMVTVSS
VL: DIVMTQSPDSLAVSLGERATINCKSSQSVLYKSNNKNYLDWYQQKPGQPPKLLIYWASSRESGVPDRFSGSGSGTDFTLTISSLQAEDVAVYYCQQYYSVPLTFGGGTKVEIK
B3: 2F11 (antibody, V domains shown)
VH: EVQLVQSGAEVKKPGESLKISCKGSGYSFTNYWIGWVRQMPGKGLEWMGIIYPGDSDTRYSPSFQGQVTLSADKSISTAYLQWNSLKASDTAMYYCATHARSWNYVAYWGQGTLVTVAS
VL: DIQMTQSPSSLSASVGDRVTITCRASQSVNNFLNWYQQKPGTAPKLLIYAASSLQGGVPSRFSGSGSGTDFTLTISSLQPEDFATYYCQQSNTTPWTFGQGTKVEIK
B4: 2B9 (antibody, V domains shown)
VH: EVQLLESGGGLAQPGKSLRLSCAASGFTFSGFAMSWVRQAPGKGLEWVSGISGSGDITYYADSVKGRFTISRDNSKSTLYLQMNSLGAEDTAVYYCAKDPYNWNHGVYGMDVWGQGTTVTVSS
VL: DIQMTQSPSSLSASVGDRVTITCRASQSISSYLNWYQQKPGKAPKFLIYGASSLQSGVPSRFSGSGSGTDFTLTISSLQPEDFAAYYCQQSFNAPLTFGGGTKVEIK
B5: 7E5 (antibody, V domains shown)
VH: EVQLLESGGGLIQPGGSLRLSCAASGFTFSGFAMSWVRQAPGKGLEWVSGISGSGDITYYGDSVKGRFTISRDNSKSTLYLQMNSLRDADTAVYYCGKDPYNWNHGVYGMDVWGQGTTVTVSS
VL: DIQMTQSPSSLSASVGDRVTITCRASQSISTYLNWYQQKPGKAPKFLIYGASSLQSGVPSRFSGSGSGTDFSLTISSLHPGDFATYYCQQSYNIPLTFGGGTKVEIK

What was measured:
Test in all cases: cell-based or functional assay
[1] = target: BK virus VP1 protein, genotype IV (BK virus)
[2] = target: T1, BK virus VP1 protein, genotype I
[3] = target: BK virus VP1 protein, genotype II (BK virus)
[4] = target: BK virus VP1 protein, genotype III (BK virus)
[5] = target: BK virus VP1 protein, genotype IV (BK virus); remark: listed apart in the source
[6] = target: T1, BK virus VP1 protein, genotype I; remark: listed apart in the source
[7] = target: BK virus VP1 protein, genotype II (BK virus); remark: listed apart in the source
[8] = target: BK virus VP1 protein, genotype III (BK virus); remark: listed apart in the source
[9] = target: BK virus VP1 protein, genotype IV (BK virus); remark: listed apart in the source
[10] = target: BK virus VP1 protein, genotype II (BK virus); remark: listed apart in the source
[11] = target: BK virus VP1 protein, genotype III (BK virus); remark: listed apart in the source

Binder	EC50, pseudovirus neutralization [1]	EC50, pseudovirus neutralization [2]	EC50, pseudovirus neutralization [3]	EC50, pseudovirus neutralization [4]	EC50, pseudovirus neutralization (mAb mixed with irrelevant isotype matched mAb M2) [5]	EC50, pseudovirus neutralization (mAb mixed with irrelevant isotype matched mAb M2) [6]	EC50, pseudovirus neutralization (mAb mixed with irrelevant isotype matched mAb M2) [7]	EC50, pseudovirus neutralization (mAb mixed with irrelevant isotype matched mAb M2) [8]	EC50, pseudovirus neutralization (mAb mixed with irrelevant isotype matched mAb M2) [9]	EC50, pseudovirus neutralization (mAb mixed with irrelevant isotype matched mAb M2) [10]	EC50, pseudovirus neutralization (mAb mixed with irrelevant isotype matched mAb M2) [11]	EC50, pseudovirus neutralization [5]	EC50, pseudovirus neutralization [7]	EC50, pseudovirus neutralization [8]
B1	> 6.67 nM	0.0087 nM	0.0083 nM	1.14 nM										
B2	0.0197 nM	> 6.67 nM	0.0021 nM	0.0296 nM										
B3	0.0061 nM	> 6.67 nM	0.0838 nM	0.0105 nM	0.00185 nM	> 2 nM	0.148 nM	0.0061 nM						
B4	0.148 nM		0.154 nM	0.0808 nM					0.0108 nM	0.044 nM	0.0054 nM	0.0114 nM	0.0613 nM	0.0068 nM
B5	0.133 nM	0.0249 nM	1.16 nM	0.415 nM										
